Data reported in PMC13227277, “Targeting CIRP and IL-6R-mediated microglial inflammation to improve outcomes in intracerebral hemorrhage” (Journal of Advanced Research, 2025).

Legend:
STAT3 = STAT3 phosphorylation following CIRP and IL-6R interaction, western blot; format: cell-based; conditions: n = 6
Method: (§1) Cells were divided into control and test groups. For transfection, solution A (plasmid diluted in Opti-MEM) and solution B (Lipofectamine 2000, Life Technologies, USA, diluted in Opti-MEM) were mixed at a 1:2 plasmid-to-lipofectamine ratio. After 6 h, the medium was replaced with DMEM, and GFP fluorescence was observed 24–48 h post-transfection to assess efficiency. Cells were divided into PBS, IL-6R, and CIRP (1 μg/mL for 24 h) groups for further analysis.
Cells were washed twice with PBS, lysed, and sonicated. After a 30-minute rest to ensure thorough lysis, the homogenate was centrifuged at 12,000 rpm at 4 °C for 15 min. The supernatant was collected for protein quantification using the BCA method. Samples were prepared at a concentration of 2 μg/μL, and 15 μL per well was loaded for gel electrophoresis. Proteins were transferred to membranes using a wet transfer method and blocked with 5 % non-fat milk. […] Membranes were incubated with primary antibodies overnight at 4 °C, followed by incubation with secondary antibodies (GAR-HRP, BIOSHARP; GAM-HRP, Jackson) at room temperature for 2 h. Membranes were washed three times with TBST and developed using a chemiluminescent substrate.

[1] = tested on: Cirbp^−/− microglia vs WT microglia; experiment: TNF-α and IL-6 release, WT and Cirbp^−/− microglia with rmCIRP, ELISA; format: cell-based, mouse; conditions: CIRP treatment, 24 h, n = 3–4
Method: ELISA was used to quantify CIRP, MD2, IL-6, and TNF-α concentrations in blood and cerebrospinal fluid samples. Samples were processed and stored under standardized conditions to preserve protein integrity. Each target protein was measured using commercial ELISA kits, following the manufacturer’s instructions: Mouse CIRBP ELISA Kit (CSB-EL005440MO, CUSABIO), Mouse TNF-α ELISA Kit (EK282, Lianke Bio), Mouse IL-6 ELISA Kit (CSB-E04639m, CUSABIO), and […].
Primary cortical neurons were isolated from embryonic day 16–18 (E16–E18) C57BL/6 mouse embryos as previously described, and cultured in Neurobasal medium supplemented with B27 and GlutaMAX (Gibco).Primary microglial cells were isolated from the cortices of neonatal (day 1) C57BL/6J mice. After disinfection with 75 % ethanol, the skin and skull were removed, and the brains were placed in ice-cold HBSS. The meninges were peeled off, the cortex was collected, and the hippocampus was discarded. Tissues were digested with 0.25 % trypsin at 37 °C for 12 min, centrifuged at 1200 rpm for 5 min, and resuspended in complete medium. […]
RBCs were isolated via density gradient centrifugation and labeled with CFSE before being stereotactically injected into the right striatum. […] Cell viability was assessed using a Fixable Viability Dye, and flow cytometric analysis was subsequently performed. […]

IL-6R = experiment: Co-immunoprecipitation of CIRP and IL-6R; format: binding; conditions: Co-IP, n = 3
Method: as §1
The beads were washed twice with lysis buffer to remove unbound proteins. Bound proteins were eluted by boiling the beads in sample buffer at 95°C for 3 min and subjected to Western blot analysis.

microglia = experiment: IL-6 release from CIRP-stimulated microglia, ELISA (TCC vs TC); format: cell-based, mouse; conditions: peptides 10 μM pre-treated 0.5 h, then rmCIRP 1 μg/mL 24 h, n = 3
Method: To validate the effects of TCC and TC in vitro, microglial cells were pre-treated with the peptides (10 μM) for 0.5 h, followed by stimulation with recombinant mouse CIRP (rmCIRP, 1 μg/mL) for 24 h to establish an inflammation model.
ELISA was used to quantify CIRP, MD2, IL-6, and TNF-α concentrations in blood and cerebrospinal fluid samples. Samples were processed and stored under standardized conditions to preserve protein integrity. Each target protein was measured using commercial ELISA kits, following the manufacturer’s instructions: Mouse CIRBP ELISA Kit (CSB-EL005440MO, CUSABIO), Mouse TNF-α ELISA Kit (EK282, Lianke Bio), Mouse IL-6 ELISA Kit (CSB-E04639m, CUSABIO), and Rat TNF-α ELISA Kit (EK382, Lianke Bio).
After disinfection with 75 % ethanol, the skin and skull were removed, and the brains were placed in ice-cold HBSS. The meninges were peeled off, the cortex was collected, and the hippocampus was discarded. Tissues were digested with 0.25 % trypsin at 37 °C for 12 min, centrifuged at 1200 rpm for 5 min, and resuspended in complete medium. The suspension was transferred to a T75 flask with 15 mL of complete medium. After 14 days, microglial cells were harvested by shaking the flask at 270–280 rpm for 30 min, and the supernatant was collected. […] CIRP (1 μg/mL for 24 h) was added to the microglia, which were divided into PBS, CIRP, and CIRP + TCC groups. […]

neurons = experiment: Neurons co-cultured with CIRP-treated microglial supernatant (CCK-8, immunofluorescence); format: cell-based, mouse
Method: Brain tissues were fixed in paraformaldehyde, dehydrated, and sectioned at 30 µm using a microtome (CM1900UV, Leica, Germany). Sections were floated onto glass slides and left overnight at room temperature. For cultured cells, after discarding the medium, cells were washed twice with PBS, fixed with precooled 4 % PFA at 4 °C for 10 min, and washed three times with PBS (10 min each) on a shaker. Cells were permeabilized with 0.3 % Triton X-100 in PBS for 20 min, blocked with 5 % donkey serum for 1 h, and incubated overnight at 4 °C with primary antibodies (Iba-1, Rabbit polyclonal, Wako; NeuN, Millipore; GFAP, CST; MBP, Abcam; SMI32, Millipore). The next day, sections were brought to room temperature, washed three times with PBST (PBS + Tween-20), and incubated with secondary antibodies for 1 h in the dark. […] Fluorescence was visualized using a DM4000B microscope and images were captured with a Leica TCS SP8 confocal microscope. […]
To mimic ischemic conditions, neurons at DIV7 were subjected to OGD. […] The supernatants were collected for subsequent CIRP quantification. […]
Microglia were exposed to 1, 10 100 μM concentrations of TCC or TC and PBS respectively for 24 h, and cell viability was measured. […] Cell viability was assessed using the Cell Counting Kit-8 (C0038, Beyotime) according to the manufacturer’s protocol. Absorbance at 450 nm was measured to determine cell viability.

IL-6Rα = conditions: macrophages; cited from earlier work
Text: Previous studies have shown that MD2 binds to a specific 15-amino acid segment of CIRP with high affinity, promoting inflammation. To target this interaction, we designed the peptides TCC and TC using macromolecular docking techniques, with SPR confirming that TCC reduced the binding affinity of CIRP to IL-6Rα.

[2] = tested on: IL-6Rα/STAT3 pathway in microglia; experiment: IL-6Rα expression and p-STAT3 in CIRP-stimulated microglia; format: cell-based, mouse; conditions: CIRP stimulation with or without TCC
Method: Brain tissues were fixed in paraformaldehyde, dehydrated, and sectioned at 30 µm using a microtome (CM1900UV, Leica, Germany). Sections were floated onto glass slides and left overnight at room temperature. For cultured cells, after discarding the medium, cells were washed twice with PBS, fixed with precooled 4 % PFA at 4 °C for 10 min, and washed three times with PBS (10 min each) on a shaker. Cells were permeabilized with 0.3 % Triton X-100 in PBS for 20 min, blocked with 5 % donkey serum for 1 h, and incubated overnight at 4 °C with primary antibodies (Iba-1, Rabbit polyclonal, Wako; NeuN, Millipore; GFAP, CST; MBP, Abcam; SMI32, Millipore). The next day, sections were brought to room temperature, washed three times with PBST (PBS + Tween-20), and incubated with secondary antibodies for 1 h in the dark. After three more PBST washes, samples were mounted with DAPI-containing medium and sealed. Fluorescence was visualized using a DM4000B microscope and images were captured with a Leica TCS SP8 confocal microscope. […]
Brain tissue adjacent to the hemorrhagic striatum was homogenized in lysis buffer with protease inhibitors. […] The supernatant was collected for protein quantification using the BCA method. […]

B1: recombinant human CIRP (cold-inducible RNA-binding protein) (natural protein, UniProt Q14011 1-172, looked up)
chain: MASDEGKLFVGGLSFDTNEQSLEQVFSKYGQISEVVVVKDRETQRSRGFGFVTFENIDDAKDAMMAMNGKSVDGRQIRVDQAGKSSDNRSRGYRGGSAGGRGFFRGGRGRGRGFSRGGGDRGYGGNRFESRSGGYGGSRDYYSSRSQSGGYSDRSSGGSYRDSYDSYATHNE
notes: UniProtKB Q14011 is printed for the docking; also called rhCIRP; human CIRBP; source: recombinant
phosphorylation of STAT3 (STAT3): induced phosphorylation of the STAT3
IL-6 and TNF-α secretion, Cirbp^−/− vs WT microglia [1]: marked decrease in the secretion of both IL-6 and TNF-α levels
interaction between CIRP and IL-6R (IL-6R): confirmed a interaction between CIRP and IL-6R
IL-6 release in culture supernatants (microglia): significantly increased IL-6 levels
neuronal morphology and axonal integrity (neurons; 24-hour co-culture with microglial supernatant, immunofluorescence, n = 4–6): altered morphology and reduced axonal integrity
neuronal viability (neurons; microglial supernatant following CIRP with or without TCC, CCK-8, 24 h, n = 3): impaired neuronal viability
IL-6Rα as receptor for CIRP (IL-6Rα): high-affinity receptor for CIRP in macrophages
IL-6Rα expression on microglia ([2]; immunofluorescence): IL-6Rα expression on the microglial membrane significantly increased
p-STAT3 level in microglia ([2]; western blot, n = 6): increase in the p-STAT3/GAPDH ratio compared to the PBS control group
